Key:
[1] = target: the molecule itself; experiment: SEC; […], pH 8.0, 25°C; […]
[2] = target: the molecule itself; experiment: SDS-PAGE of unboiled and boiled samples; 10 µg Eis in 1% SDS, 0.125 M Tris pH 6.8, boiled or unboiled; 10% acrylamide gel, 0.1% SDS in Tris/Glycine pH 8.0; Coomassie stain

B1: Eis protein (Rv2416c) of M. tuberculosis (enzyme)
chain: MTVTLCSPTEDDWPGMFLLAAASFTDFIGPESATAWRTLVPTDGAVVVRDGAGPGSEVVGMALYMDLRLTVPGEVVLPTAGLSFVAVAPTHRRRGLLRAMCAELHRRIADSGYPVAALHASEGGIYGRFGYGPATTLHELTVDRRFARFHADAPGGGLGGSSVRLVRPTEHRGEFEAIYERWRQQVPGGLLRPQVLWDELLAECKAAPGGDRESFALLHPDGYALYRVDRTDLKLARVSELRAVTADAHCALWRALIGLDSMERISIITHPQDPLPHLLTDTRLARTTWRQDGLWLRIMNVPAALEARGYAHEVGEFSTVLEVSDGGRFALKIGDGRARCTPTDAAAEIEMDRDVLGSLYLGAHRASTLAAANRLRTKDSQLLRRLDAAFASDVPVQTAFEF
notes: also called aminoglycoside acetyltransferase Eis; recombinant Eis protein
Q: What does the source list for B1?
A: stoichiometry N [1]: 6; stoichiometry N [2]: 3

Source: publication PMC3217979, “Thermostable Hexameric Form of Eis (Rv2416c) Protein of M. tuberculosis Plays an Important Role for Enhanced Intracellular Survival within Macrophages” (PLoS ONE, 2011)
